The text below walks through data of the supplement of paper PMC11246515.

± gives the standard deviation of the averaged measurements.

A short description of the data set: total protein half-life in vivo (active degradation + dilution); higher = more stable protein.
The mark [1] stands for this setting: E. coli NCM3722 delta-clpP delta-lon delta-hslV, growth: N-lim chemostat, doubling time 6 h.
Where [2] appears, read: E. coli NCM3722 delta-clpP, growth: N-lim chemostat, doubling time 6 h.
The mark [3] stands for this setting: E. coli NCM3722 delta-hslV, growth: N-lim chemostat, doubling time 6 h.
Setting [4] is: E. coli NCM3722 delta-lon, growth: N-lim chemostat, doubling time 6 h.
Where [5] appears, read: E. coli NCM3722 delta-smpB, growth: N-lim chemostat, doubling time 6 h.
The mark [6] stands for this setting: wild type E. coli NCM3722, growth: C-lim chemostat, doubling time 3 h.
The mark [7] stands for this setting: wild type E. coli NCM3722, growth: C-lim chemostat, doubling time 6 h.
Where [8] appears, read: wild type E. coli NCM3722, growth: C-lim chemostat, doubling time 12 h.
Setting [9] is: wild type E. coli NCM3722, growth: N-lim chemostat, doubling time 6 h.
Where [10] appears, read: wild type E. coli NCM3722, growth: N-lim chemostat, doubling time 12 h.
Where [11] appears, read: wild type E. coli NCM3722, growth: P-lim chemostat, doubling time 6 h.
Where [12] appears, read: wild type E. coli NCM3722, growth: P-lim chemostat, doubling time 12 h.

Take “MTMNSFERRNKIIQLVNEQGTVLVQDLAGVFAASEATIRADLRFLEQKGVVTRFHGGAAKIMSGNSETETQEVGFKERFQLASAPKNRIAQAAVKMIHEGMTDPTHVIWTQA”: the “total protein half-life in vivo” value is 5.66 ± 0.27 h under setting [1]; 5.64 ± 0.21 h under setting [2]; 5.7 ± 0.13 h under setting [3]; 5.59 ± 0.61 h under setting [4]; 6.1 ± 0.52 h under setting [5]; 2.9 ± 0.17 h under setting [6]. Moreover, the “total protein half-life in vivo” value runs as follows: under setting [7], 5.62 ± 0.3 h; under setting [8], 12.4 ± 2.1 h; under setting [9], 5.69 ± 0.26 h; under setting [10], 11.3 ± 1.8 h; under setting [11], 5.95 ± 0.17 h; under setting [12], 11.5 ± 0.23 h.
Regarding “MSQLTHINAAGEAHMVDVSAKAETVREARAEAFVTMRSETLAMIIDGRHHKGDVFATARIAGIQAAKRTWDLIPLCHPLMLSKVEVNLQAEPEHNRVRIETLCRLTGKTGVEMEALTAASVAALTIYDMCKAVQKDMVIGPVRLLAKSGGKSGDFKVEADD [P0A738]”, the “total protein half-life in vivo” value reads like this: under setting [1], 5.289 ± 0.028 h; under setting [2], 5.03 ± 0.15 h; under setting [3], 4.56 ± 0.47 h; under setting [4], 4.41 ± 0.087 h; under setting [5], 3.95 ± 0.17 h; under setting [6], 2.9 ± 0.24 h. Besides, the “total protein half-life in vivo” value is, setting by setting: under setting [7], 4.96 ± 0.099 h; under setting [8], 8.28 ± 0.49 h; under setting [9], 4.1 ± 0.28 h; under setting [10], 5.91 ± 0.19 h; under setting [11], 4.92 ± 0.059 h; under setting [12], 9.42 ± 0.47 h.
Regarding “MTLTASSSSRAVTNSPVVVALDYHNRDDALAFVDKIDPRDCRLKVGKEMFTLFGPQFVRELQQRGFDIFLDLKFHDIPNTAAHAVAAAADLGVWMVNVHASGGARMMTAAREALVPFGKDAPLLIAVTVLTSMEASDLVDLGMTLSPADYAERLAALTQKCGLDGVVCSAQEAVRFKQVFGQEFKLVTPGIRPQGSEAGDQRRIMTPEQALSAGVDYMVIGRPVTQSVDPAQTLKAINASLQRSA”, the “total protein half-life in vivo” value is, setting by setting: under setting [1], 5.11 ± 0.11 h; under setting [2], 6.25 ± 2.3 h; under setting [3], 4.479 ± 0.025 h; under setting [4], 5.08 ± 0.2 h; under setting [5], 4.77 ± 0.33 h; under setting [6], 2.89 ± 0.2 h. Also, the “total protein half-life in vivo” value is, setting by setting: under setting [7], 6.45 ± 1 h; under setting [8], 9.6 ± 0.32 h; under setting [9], 4.77 ± 0.15 h; under setting [10], 8.44 ± 1.3 h; under setting [11], 5.08 ± 0.49 h; under setting [12], 10.2 ± 0.27 h.
Consider “MKKMMIATLAAASVLLAVANQAXAGATLDAVQKKGFVQCGISDGLPGFSYADADGKFSGIDVDICRGVAAAVFGDDTKVKYTPLTAKERFTALQSGEVDLLSRNTTWTSSRDAGMGMAFTGVTYYDGIGFLTHDKAGLKSAKELDGATVCIQAGTDTELNVADYFKANNMKYTPVTFDRSDESAKALESGRCDTLASDQSQLYALRIKLSNPAEWIVLPEVISKEPLGPVVRRGDDEWFSIVRWTLFAMLNAEEMGINSQNVDEKAANPATPDMAHLLGKEGDYGKDLKLDNKWAYNIIKQVGNYSEIFERNVGSESPLKIKRGQNNLWNNGGIQYAPPVR”, for which the “total protein half-life in vivo” value under setting [1] was determined as 4.74 ± 0.45 h.
Turning to “MNISDVAKITGLTSKAIRFYEEKGLVTPPMRSENGYRTYTQQHLNELTLLRQARQVGFNLEESGELVNLFNDPQRHSADVKRRTLEKVAEIERHIEELQSMRDQLLALANACPGDDSADCPIIENLSGCCHHRAG [P0A9G4]”, the “total protein half-life in vivo” value is, setting by setting: under setting [1], 4.71 ± 0.63 h; under setting [2], 1.45 h; under setting [4], 2.12 ± 0.77 h; under setting [6], 1.3 h; under setting [7], 1.95 h; under setting [8], 2.21 h. Moreover, the “total protein half-life in vivo” value runs as follows: under setting [10], 1.07 h; under setting [11], 0.945 h; under setting [12], 2.28 ± 0.59 h.
In the case of “MGNRTKEDELYREMCRVVGKVVLEMRDLGQEPKHIVIAGVLRTALANKRIQRSELEKQAMETVINALVK [P0ACX5]”, the “total protein half-life in vivo” value reads like this: under setting [3], 3.93 h; under setting [6], greater than 4 h; under setting [7], 4.79 h; under setting [10], 15.3 h; under setting [11], 5.05 ± 1.9 h; under setting [12], 12.6 ± 1.2 h.
“MQEIMQFVGRHPILSIAWIALLVAVLVTTFKSLTSKVKVITRGEATRLINKEDAVVVDLRQRDDFRKGHIAGSINLLPSEIKANNVGELEKHKDKPVIVVDGSGMQCQEPANALTKAGFAQVFVLKEGVAGWAGENLPLVRGK [P0AG27]”: the “total protein half-life in vivo” value runs as follows: under setting [1], 5.92 ± 0.38 h; under setting [2], 6.89 ± 0.76 h; under setting [3], 6.06 ± 0.078 h; under setting [4], 5.77 ± 1 h; under setting [5], 5.7 ± 0.28 h; under setting [6], 3.71 ± 0.18 h. For the same sequence, the “total protein half-life in vivo” value is, setting by setting: under setting [8], 10.9 ± 1.4 h; under setting [9], 5.96 ± 0.49 h; under setting [11], 6.47 ± 0.095 h.
In the case of “MKKIWLALAGLVLAFSASAAQYEDGKQYTTLEKPVAGAPQVLEFFSFFCPHCYQFEEVLHISDNVKKKLPEGVKMTKYHVNFMGGDLGKDLTQAWAVAMALGVEDKVTVPLFEGVQKTQTIRSASDIRDVFINAGIKGEEYDAAWNSFVVKSLVAQQEKAAADVQLRGVPAMFVNGKYQLNPQGMDTSNMDVFVQQYADTVKYLSEKK [P0AEG4]”, the “total protein half-life in vivo” value is, setting by setting: under setting [1], 5.32 ± 0.12 h; under setting [2], 5.05 ± 0.36 h; under setting [3], 6.08 ± 0.13 h; under setting [4], 6.83 ± 0.3 h; under setting [5], 6.24 ± 0.57 h; under setting [6], 3.03 ± 0.28 h. Besides, the “total protein half-life in vivo” value runs as follows: under setting [7], 5.32 ± 0.28 h; under setting [8], 8.77 ± 2.3 h; under setting [9], 5.73 ± 0.14 h; under setting [10], 11.62 ± 0.096 h; under setting [11], 5.665 ± 0.0088 h; under setting [12], 11.5 ± 1 h.
With “MKAIDNQIRNISSSHQDKHSDKVNSHQHHGKVDKTHRAKIVEFDKLDNDSQIDNDFGLHIIYFLQHGHWKVNDRSHQMEKVWFYNSEPSIDIQEYNRFADNTTDTFIFTIIPDNNHVLKLSSPITVTVECKGGYYFINSSGDKSDIIYKVDGLSIIARNFFTLLSGNFKPDWRWDVSKETFTKEKFDSYVKSVFSKIDFYKQCGVINPQNANTAYFGDTDGRVGAVLYALLVSGHIGIREKGWSLLCELLKHEEMASSAYKHKNNKVLYDLLNTRDMILNELHQHVFLKDDAITPCIFLGDHTGDRFSTIFGDKYILTLLNSMRNMEGNKDSRINKNVVVLAGNHEINFNGNYTARLANHKLSAGDTYNLIKTLDVCNYDSERQVLTSHHGIIRDEEKKCYCLGALQVPFNQMKNPTDPEELANIFNKKHKEHMDDPLFHLIRSNTLKPTPVYANYFDNTTDFRPARERIFICGETLKGEDPSKYIRQKYGHHGPGVDHNQQFDNGIMGLNSLKEARDKNNKIIYSSGLSCFQLH”, the “total protein half-life in vivo” value under setting [2] was 2.18 ± 0.21 h; the “total protein half-life in vivo” value under setting [3] turned out to be 2.35 ± 0.097 h; the “total protein half-life in vivo” value under setting [4] stood at 2.82 h; the “total protein half-life in vivo” value under setting [5] was 2.53 h; the “total protein half-life in vivo” value under setting [6] is 2.6 ± 0.029 h; the “total protein half-life in vivo” value under setting [7] came out at 4.34 ± 0.27 h. Besides, the “total protein half-life in vivo” value runs as follows: under setting [8], 6 h; under setting [9], 2.27 ± 0.28 h; under setting [10], 3.75 h; under setting [11], 5.32 ± 0.097 h; under setting [12], 8.76 ± 0.24 h.
“MARKWLNLFAGAALSFAVAGNALADEGKITVFAAASLTNAMQDIATQFKKEKGVDVVSSFASSSTLARQIEAGAPADLFISADQKWMDYAVDKKAIDTATRQTLLGNSLVVVAPKASVQKDFTIDSKTNWTSLLNGGRLAVGDPEHVPAGIYAKEALQKLGAWDTLSPKLAPAEDVRGALALVERNEAPLGIVYGSDAVASKGVKVVATFPEDSHKKVEYPVAVVEGHNNATVKAFYDYLKGPQAAEIFKRYGFTIK”: the “total protein half-life in vivo” value is 5.7 ± 0.29 h under setting [1]; 5.9 ± 0.53 h under setting [2]; 6.46 ± 0.2 h under setting [3]; 6.16 ± 0.47 h under setting [4]; 6.39 ± 0.36 h under setting [5]; 2.87 ± 0.23 h under setting [6]. Moreover, the “total protein half-life in vivo” value under setting [7] turned out to be 6.01 ± 0.3 h; the “total protein half-life in vivo” value under setting [8] stood at 12.8 ± 0.23 h; the “total protein half-life in vivo” value under setting [9] came to 5.9 ± 0.19 h; the “total protein half-life in vivo” value under setting [10] is 12.7 ± 0.75 h; the “total protein half-life in vivo” value under setting [11] came to 6.64 ± 0.41 h; the “total protein half-life in vivo” value under setting [12] is 13.7 ± 0.95 h.
Regarding “MLQVYLVRHGETQWNAERRIQGQSDSPLTAKGEQQAMQVATRAKELGITHIISSDLGRTRRTAEIIAQACGCDIIFDSRLRELNMGVLEKRHIDSLTEEEENWRRQLVNGTVDGRIPEGESMQELSDRVNAALESCRDLPQGSRPLLVSHGIALGCLVSTILGLPAWAERRLRLRNCSISRVDYQESLWLASGWVVETAGDISHLDAPALDELQR [P0A7A2]”, the “total protein half-life in vivo” value reads like this: under setting [1], 4.23 ± 1.4 h; under setting [2], 2.57 ± 0.17 h; under setting [3], 2.36 ± 0.011 h; under setting [4], 2.852 ± 0.012 h; under setting [5], 2.65 ± 0.051 h; under setting [6], 2.75 ± 0.28 h. Further, the “total protein half-life in vivo” value amounted to 4.55 ± 0.27 h under setting [7]; 7.06 ± 0.16 h under setting [8]; 2.71 ± 0.11 h under setting [9]; 3.84 ± 0.45 h under setting [10]; 4.88 ± 0.12 h under setting [11]; 8.06 ± 1 h under setting [12].
Take “MKKVAIVGLGWLGMPLAMSLSARGWQVTGSKTTQDGVEAARMSGIDSYLLRMEPELVCDSDDLDALMDADALVITLPARRSGPGDEFYLQAVQELVDSALAHRIPRIIFTSSTSVYGDAQGTVKETTPRNPVTNSGRVLEELEDWLHNLPGTSVDILRLAGLVGPGRHPGRFFAGKTAPDGEHGVNLVHLEDVIGAITLLLQAPKGGHIYNICAPAHPARNVFYPQMARLLGLEPPQFRNSLDSGKGKIIDGSRICNELGFEYQYPDPLVMPLE [P0AD12]”: the “total protein half-life in vivo” value reads like this: under setting [1], 4.79 ± 0.29 h; under setting [2], 4.52 ± 0.45 h; under setting [3], 4.63 ± 0.4 h; under setting [4], 5.07 ± 0.57 h; under setting [5], 4.5 ± 0.096 h; under setting [6], 3.06 ± 0.16 h. Besides, the “total protein half-life in vivo” value under setting [7] is 5.019 ± 0.0077 h; the “total protein half-life in vivo” value under setting [8] turned out to be 8.76 ± 1.2 h; the “total protein half-life in vivo” value under setting [9] is 4.35 ± 0.44 h; the “total protein half-life in vivo” value under setting [10] is 7.41 ± 0.52 h; the “total protein half-life in vivo” value under setting [11] amounted to 5.61 ± 0.32 h; the “total protein half-life in vivo” value under setting [12] turned out to be 11.1 ± 0.28 h.
